For 43 molecules, normalised SPOT signal, Boehringer light units (BLU); mean over the file's lines of this peptide results are on record in publication PMC314469, “Protein Interaction Networks by Proteome Peptide Scanning” (PLoS Biology, 2004).

T1: Abp1 SH3 (ABP1_YEAST), P15891
T1 chain: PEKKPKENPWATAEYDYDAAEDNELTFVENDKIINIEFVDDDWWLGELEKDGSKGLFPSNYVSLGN

T2: Boi1 SH3 (BOI1_YEAST), P38041
T2 chain: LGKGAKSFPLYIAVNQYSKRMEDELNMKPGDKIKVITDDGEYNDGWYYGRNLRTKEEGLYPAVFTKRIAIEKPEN

T3: Boi2 SH3 (BOI2_YEAST), P39969
T3 chain: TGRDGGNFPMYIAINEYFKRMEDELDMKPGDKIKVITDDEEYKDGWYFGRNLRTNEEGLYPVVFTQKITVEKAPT

T4: Myo5 SH3 (MYO5_YEAST), Q04439
T4 chain: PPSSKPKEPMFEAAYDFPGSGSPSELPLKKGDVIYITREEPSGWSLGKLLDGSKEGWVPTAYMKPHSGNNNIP

T5: Rvs167 SH3 (RV167_YEAST), P39743
T5 chain: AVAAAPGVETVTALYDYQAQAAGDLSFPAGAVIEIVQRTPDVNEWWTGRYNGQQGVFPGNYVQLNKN

T6: Yfr024 SH3 (LSB3_YEAST), P43603
T6 chain: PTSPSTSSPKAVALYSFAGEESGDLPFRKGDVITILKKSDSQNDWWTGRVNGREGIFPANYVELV

T7: Yhr016c SH3 (YSC84_YEAST), P32793
T7 chain: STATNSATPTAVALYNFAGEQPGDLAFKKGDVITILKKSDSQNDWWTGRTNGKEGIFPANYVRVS

One test addresses T1, Abp1 SH3 (ABP1_YEAST), P15891. Put plainly: SPOT array.
On to WETWLYKPGMPPRP [YNL045W 490-503], for which the normalised SPOT signal, Boehringer light units (BLU); mean over the file's lines of this peptide is 310.
Same read-out and setting: the value for KLAILTSPFEPPKP [YJR064W 268-281] was 40.4.
On the same count and under the same terms, as for ILTSLPVPPPPVRP [YDL140C 235-248], the figure is 208.
On the same count and under the same terms, as for TELNLSSPNVPGKP [YKL216W 127-140], the figure is 166.

The target in another test is T2, Boi1 SH3 (BOI1_YEAST), P38041. As to the kind of experiment: SPOT array.
Turning to LVGMRSFPLYPSGL [YDL068W 45-58], the normalised SPOT signal, Boehringer light units (BLU); mean over the file's lines of this peptide was 512.

For a further test, the target named is T3, Boi2 SH3 (BOI2_YEAST), P39969. Put plainly: SPOT array.
In turn, LVGMRSFPLYPSGL [YDL068W 45-58] returned a normalised SPOT signal, Boehringer light units (BLU); mean over the file's lines of this peptide of 325.

The next test deals with T4, Myo5 SH3 (MYO5_YEAST), Q04439. Put plainly: SPOT array.
The molecule WETWLYKPGMPPRP [YNL045W 490-503] had a normalised SPOT signal, Boehringer light units (BLU); mean over the file's lines of this peptide of 255.
Still for that read-out and setting: the value for LVGMRSFPLYPSGL [YDL068W 45-58] was 386.
Same read-out and setting: the value for KLAILTSPFEPPKP [YJR064W 268-281] was 173; that for ILTSLPVPPPPVRP [YDL140C 235-248] was 617; that for TELNLSSPNVPGKP [YKL216W 127-140] was 228.

A further test concerns the target T5, Rvs167 SH3 (RV167_YEAST), P39743. Put plainly: SPOT array.
As to LVGMRSFPLYPSGL [YDL068W 45-58], the normalised SPOT signal, Boehringer light units (BLU); mean over the file's lines of this peptide came out at 387.

The target in another test is Sho1 SH3 (SHO1_YEAST), P40073. As to the kind of experiment: SPOT array.
Sequence of Sho1 SH3 (SHO1_YEAST), P40073 (P40073 295-366): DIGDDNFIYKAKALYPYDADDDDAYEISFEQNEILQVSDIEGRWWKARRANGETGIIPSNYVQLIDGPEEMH
For PLIPDNPGRLLSSK [311-324 Hypothetical ORF], the normalised SPOT signal, Boehringer light units (BLU); mean over the file's lines of this peptide was found to be 83.2.
Same read-out and setting: as for QIFPKKPLRRTVMS [166-179 involved in ion homeostasis], the figure is 534; as for PLQPRPPVKPLSKQ [87-100 35 kDa mitochondrial ribosomal small subunit protein], 85.4; as for PKDPSSPQRDEILT [27-40 Hypothetical ORF], 130.
Still for that read-out and setting: the value for NMVPLNPNRIIPDE [189-202 Product of gene unknown] was 130.
NKVPTNPKKFKKAP [326-339 " involved in silencing at telomeres, HML, and HMR"] gave a normalised SPOT signal, Boehringer light units (BLU); mean over the file's lines of this peptide of 291.
Same read-out and setting: as for QGLPASPSRAALRY [55-68 chitin synthase 2], the figure is 140; as for PFLPVLPQKPGGVR [35-48 succinate dehydrogenase membrane anchor subunit], 1380.
On the same count and under the same terms, as for PIMPTLPPRPYITI [537-550 Hypothetical ORF], the figure is 228; as for PFIPKFPSRESVES, 163; as for NVQPRKPSRVHSRN [634-647 Hypothetical ORF], 82.5.
On the same count and under the same terms, as for QLFPVRPVRVRHED [198-211 " RNA polymerase III (C) subunit, homologus to human BN51 protein"], the figure is 95.2; as for NLDPNPPVRGENLT [61-74 Hypothetical ORF], 206.
Consider QGYPRQPQRPQRYH [27-40 "heat shock protein similar to HSP26, involved in cytoskeleton assembly"], for which the normalised SPOT signal, Boehringer light units (BLU); mean over the file's lines of this peptide is 195.
As for NKIPPKPRKVLQLL [93-106 Ribosomal protein L7A (L6A) (rp11) (YL8)], the normalised SPOT signal, Boehringer light units (BLU); mean over the file's lines of this peptide came out at 152.
Same read-out and setting: the value for PPEPATPSKKSLTT [169-182 origin recognition complex subunit 2] was 46.
Turning to NSLPSSPKKQPARN [173-186 Hypothetical ORF], the normalised SPOT signal, Boehringer light units (BLU); mean over the file's lines of this peptide turned out to be 198.
On the same count and under the same terms, as for NIQPNIPLRSYRYL [782-795 Hypothetical ORF], the figure is 117.
PNYPDSPPKVTFIS [66-79 Similar to ubiquitin conjugating protein family] displayed a normalised SPOT signal, Boehringer light units (BLU); mean over the file's lines of this peptide of 187.
Same read-out and setting: as for NSPPVYPKRIRHFE [22-35 Hypothetical ORF], the figure is 177; as for PVYPSLPERSKVIL [44-57 telomere binding protein], 210.
Take QGEPLDPKRPSTAS [141-154 glucosidase I]: the normalised SPOT signal, Boehringer light units (BLU); mean over the file's lines of this peptide is 124.
The same measure, in the same setting: as for PNSPTPPLKSKVSR [1337-1350 transcriptional regulator], the figure is 144; as for PVGPKVPAKEPSPK [874-887 Hypothetical ORF], 5820; as for PLPPIPPTKSKTSP [535-548 serine/threonine protein kinase], 900.
On the same count and under the same terms, as for PSNPALPKKLLNVP [345-358 negative regulator of early meiotic genes], the figure is 178; as for QDSPDMPEKESVYV, 118; as for NYIPPDPPKDIQLN [239-252 Hypothetical ORF], 38.1.
The molecule QKTPPSPAKPKQKT [26-39 Component of the exocyst complex; homolog in rat brain called rExo84.] registered a normalised SPOT signal, Boehringer light units (BLU); mean over the file's lines of this peptide of 203.
Still for that read-out and setting: the value for NIQPDLPPRKIMIP [90-103 Hypothetical ORF] was 197; that for NVDPASPWRHELLS [76-89 Hypothetical ORF] was 102; that for QGQPLPPPRGQVIL [287-300 Hypothetical ORF] was 159.
Still for that read-out and setting: the value for NNNPVPPQKINQPP [198-211 Hypothetical ORF] was 190; that for PNEPGAPSRLSFEN [285-298 ubiquitin carboxyl-terminal hydrolase] was 85.1; that for PPPPPPPSRKSGTP [477-490 Hypothetical ORF] was 261.
The molecule NLKPERPSKVSFEM [548-561 " Non-membrane-embedded, PEST sequence-containing protein"] came in with a normalised SPOT signal, Boehringer light units (BLU); mean over the file's lines of this peptide of 339.
Same read-out and setting: the value for PPVPKAPSRRSSSL [943-956 negative regulator of early meiotic gene expression] was 144.
Still for that read-out and setting: as for QEKPLTPLKYTKLI [160-173 subunit of the chromatin remodeling Snf/Swi complex], the figure is 143.

The target of a further test is T6, Yfr024 SH3 (LSB3_YEAST), P43603. As to the kind of experiment: SPOT array.
In turn, LVGMRSFPLYPSGL [YDL068W 45-58] gave a normalised SPOT signal, Boehringer light units (BLU); mean over the file's lines of this peptide of 1940.

The target of another test is T7, Yhr016c SH3 (YSC84_YEAST), P32793. As to the kind of experiment: SPOT array.
The molecule LVGMRSFPLYPSGL [YDL068W 45-58] came in with a normalised SPOT signal, Boehringer light units (BLU); mean over the file's lines of this peptide of 330.
